# Patent US20240400613A1 (SUN PHARMACEUTICAL INDUSTRIES, published 2024)
# Starred links: 1 amine or outer side, 2 acyl side, 3 side chain; linkers in the order of their positions; H or OH if unused. Non-standard residues stand in square brackets, D forms with d. Groups on a side chain read outwards from the residue. No end group written: not given here. *: point of attachment. C20 diacid = O=C(O)CCCCCCCCCCCCCCCCCCC(=O)*; γGlu = O=C(O)[C@H](CCC(=O)[*:2])N[*:1]; Nle = CCCC[C@H](N)C(=O)O; Nva = CCC[C@H](N)C(=O)O; AEEA = NCCOCCOCC(=O)O; Aib = CC(C)(N)C(=O)O
# B1: Compound 11 (peptide)
# peptide: Y[Aib]EGTFTSDYSI[Nle]LDKIAQK([AEEA-Aib-γGlu-C20 diacid])AFVQWLIAGGPSSGAPPPS-NH2
# modifications: N-terminus assumed
# SMILES: CCCC[C@H](NC(=O)[C@@H](NC(=O)[C@H](CO)NC(=O)[C@H](Cc1ccc(O)cc1)NC(=O)[C@H](CC(=O)O)NC(=O)[C@H](CO)NC(=O)[C@@H](NC(=O)[C@H](Cc1ccccc1)NC(=O)[C@@H](NC(=O)CNC(=O)[C@H](CCC(=O)O)NC(=O)C(C)(C)NC(=O)[C@@H](N)Cc1ccc(O)cc1)[C@@H](C)O)[C@@H](C)O)[C@@H](C)CC)C(=O)N[C@@H](CC(C)C)C(=O)N[C@@H](CC(=O)O)C(=O)N[C@@H](CCCCN)C(=O)N[C@H](C(=O)N[C@@H](C)C(=O)N[C@@H](CCC(N)=O)C(=O)N[C@@H](CCCCNC(=O)COCCOCCNC(=O)C(C)(C)NC(=O)CC[C@H](NC(=O)CCCCCCCCCCCCCCCCCCC(=O)O)C(=O)O)C(=O)N[C@@H](C)C(=O)N[C@@H](Cc1ccccc1)C(=O)N[C@H](C(=O)N[C@@H](CCC(N)=O)C(=O)N[C@@H](Cc1c[nH]c2ccccc12)C(=O)N[C@@H](CC(C)C)C(=O)N[C@H](C(=O)N[C@@H](C)C(=O)NCC(=O)NCC(=O)N1CCC[C@H]1C(=O)N[C@@H](CO)C(=O)N[C@@H](CO)C(=O)NCC(=O)N[C@@H](C)C(=O)N1CCC[C@H]1C(=O)N1CCC[C@H]1C(=O)N1CCC[C@H]1C(=O)N[C@@H](CO)C(N)=O)[C@@H](C)CC)C(C)C)[C@@H](C)CC
# B2: Compound 6 (peptide)
# peptide: Y[Aib]EGTFTSDYSI[Nva]LDKIAQK([AEEA-AEEA-γGlu-C20 diacid])AFVQWLIAGGPSSGAPPPS-NH2
# modifications: N-terminus assumed
# SMILES: CCC[C@H](NC(=O)[C@@H](NC(=O)[C@H](CO)NC(=O)[C@H](Cc1ccc(O)cc1)NC(=O)[C@H](CC(=O)O)NC(=O)[C@H](CO)NC(=O)[C@@H](NC(=O)[C@H](Cc1ccccc1)NC(=O)[C@@H](NC(=O)CNC(=O)[C@H](CCC(=O)O)NC(=O)C(C)(C)NC(=O)[C@@H](N)Cc1ccc(O)cc1)[C@@H](C)O)[C@@H](C)O)[C@@H](C)CC)C(=O)N[C@@H](CC(C)C)C(=O)N[C@@H](CC(=O)O)C(=O)N[C@@H](CCCCN)C(=O)N[C@H](C(=O)N[C@@H](C)C(=O)N[C@@H](CCC(N)=O)C(=O)N[C@@H](CCCCNC(=O)COCCOCCNC(=O)COCCOCCNC(=O)CC[C@H](NC(=O)CCCCCCCCCCCCCCCCCCC(=O)O)C(=O)O)C(=O)N[C@@H](C)C(=O)N[C@@H](Cc1ccccc1)C(=O)N[C@H](C(=O)N[C@@H](CCC(N)=O)C(=O)N[C@@H](Cc1c[nH]c2ccccc12)C(=O)N[C@@H](CC(C)C)C(=O)N[C@H](C(=O)N[C@@H](C)C(=O)NCC(=O)NCC(=O)N1CCC[C@H]1C(=O)N[C@@H](CO)C(=O)N[C@@H](CO)C(=O)NCC(=O)N[C@@H](C)C(=O)N1CCC[C@H]1C(=O)N1CCC[C@H]1C(=O)N1CCC[C@H]1C(=O)N[C@@H](CO)C(N)=O)[C@@H](C)CC)C(C)C)[C@@H](C)CC
# B3: Compound 10 (peptide)
# peptide: YXEGTFTSDYSIXLDKIAQKAFVQWLIAGGPSSGAPPPS
# modifications: Aib at position 2; L-homoalanine (2-aminobutyric acid) at position 13; Lys 20 side chain (epsilon amino) acylated with Moiety A; C-terminal amide (Ser-NH2)
# B4: Compound 3 (peptide)
# peptide: Y[Aib]EGTFTSDYSILLDKIAQK([AEEA-Aib-γGlu-C20 diacid])AFVQWLIAGGPSSGAPPPS-NH2
# modifications: N-terminus assumed
# SMILES: CC[C@H](C)[C@H](NC(=O)[C@H](CCCCN)NC(=O)[C@H](CC(=O)O)NC(=O)[C@H](CC(C)C)NC(=O)[C@H](CC(C)C)NC(=O)[C@@H](NC(=O)[C@H](CO)NC(=O)[C@H](Cc1ccc(O)cc1)NC(=O)[C@H](CC(=O)O)NC(=O)[C@H](CO)NC(=O)[C@@H](NC(=O)[C@H](Cc1ccccc1)NC(=O)[C@@H](NC(=O)CNC(=O)[C@H](CCC(=O)O)NC(=O)C(C)(C)NC(=O)[C@@H](N)Cc1ccc(O)cc1)[C@@H](C)O)[C@@H](C)O)[C@@H](C)CC)C(=O)N[C@@H](C)C(=O)N[C@@H](CCC(N)=O)C(=O)N[C@@H](CCCCNC(=O)COCCOCCNC(=O)C(C)(C)NC(=O)CC[C@H](NC(=O)CCCCCCCCCCCCCCCCCCC(=O)O)C(=O)O)C(=O)N[C@@H](C)C(=O)N[C@@H](Cc1ccccc1)C(=O)N[C@H](C(=O)N[C@@H](CCC(N)=O)C(=O)N[C@@H](Cc1c[nH]c2ccccc12)C(=O)N[C@@H](CC(C)C)C(=O)N[C@H](C(=O)N[C@@H](C)C(=O)NCC(=O)NCC(=O)N1CCC[C@H]1C(=O)N[C@@H](CO)C(=O)N[C@@H](CO)C(=O)NCC(=O)N[C@@H](C)C(=O)N1CCC[C@H]1C(=O)N1CCC[C@H]1C(=O)N1CCC[C@H]1C(=O)N[C@@H](CO)C(N)=O)[C@@H](C)CC)C(C)C
# B5: Compound 1 (peptide)
# peptide: Y[Aib]EGTFTSDYSI[Nva]LDKIAQK([AEEA-Aib-γGlu-C20 diacid])AFVQWLIAGGPSSGAPPPS-NH2
# modifications: N-terminus assumed
# SMILES: CCC[C@H](NC(=O)[C@@H](NC(=O)[C@H](CO)NC(=O)[C@H](Cc1ccc(O)cc1)NC(=O)[C@H](CC(=O)O)NC(=O)[C@H](CO)NC(=O)[C@@H](NC(=O)[C@H](Cc1ccccc1)NC(=O)[C@@H](NC(=O)CNC(=O)[C@H](CCC(=O)O)NC(=O)C(C)(C)NC(=O)[C@@H](N)Cc1ccc(O)cc1)[C@@H](C)O)[C@@H](C)O)[C@@H](C)CC)C(=O)N[C@@H](CC(C)C)C(=O)N[C@@H](CC(=O)O)C(=O)N[C@@H](CCCCN)C(=O)N[C@H](C(=O)N[C@@H](C)C(=O)N[C@@H](CCC(N)=O)C(=O)N[C@@H](CCCCNC(=O)COCCOCCNC(=O)C(C)(C)NC(=O)CC[C@H](NC(=O)CCCCCCCCCCCCCCCCCCC(=O)O)C(=O)O)C(=O)N[C@@H](C)C(=O)N[C@@H](Cc1ccccc1)C(=O)N[C@H](C(=O)N[C@@H](CCC(N)=O)C(=O)N[C@@H](Cc1c[nH]c2ccccc12)C(=O)N[C@@H](CC(C)C)C(=O)N[C@H](C(=O)N[C@@H](C)C(=O)NCC(=O)NCC(=O)N1CCC[C@H]1C(=O)N[C@@H](CO)C(=O)N[C@@H](CO)C(=O)NCC(=O)N[C@@H](C)C(=O)N1CCC[C@H]1C(=O)N1CCC[C@H]1C(=O)N1CCC[C@H]1C(=O)N[C@@H](CO)C(N)=O)[C@@H](C)CC)C(C)C)[C@@H](C)CC
# Columns and labels:
# [1] = molecular target: GLP-1R (UniProt P43220 24-463, limits assumed); assay: cell-based or functional assay
# [2] = molecular target: T1, GIPR (UniProt P48546 22-466, limits assumed); assay: cell-based or functional assay
# T1 sequence (looked up): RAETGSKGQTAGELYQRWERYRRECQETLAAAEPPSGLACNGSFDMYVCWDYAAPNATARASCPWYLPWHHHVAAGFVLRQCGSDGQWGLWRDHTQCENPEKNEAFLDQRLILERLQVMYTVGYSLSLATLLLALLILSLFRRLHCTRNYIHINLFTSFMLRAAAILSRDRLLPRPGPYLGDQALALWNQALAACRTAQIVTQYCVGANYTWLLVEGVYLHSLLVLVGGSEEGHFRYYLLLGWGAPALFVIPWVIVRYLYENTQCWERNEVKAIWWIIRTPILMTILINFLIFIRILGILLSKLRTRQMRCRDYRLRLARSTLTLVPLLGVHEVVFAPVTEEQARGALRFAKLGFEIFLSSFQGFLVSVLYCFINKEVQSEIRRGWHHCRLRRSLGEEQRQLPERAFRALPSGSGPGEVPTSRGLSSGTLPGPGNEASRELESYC
Molecule,"Half effective Concentration (EC50), cellular cAMP assay on GLP-1R-expressing cells [1] [nM]","Half effective Concentration (EC50), cellular cAMP assay on GIPR-expressing cells [2] [nM]"
Tirzepatide (peptide),6.8,1.9
B1,0.0059,0.0064
B2,0.0196,0.0177
B3,0.0036,0.0073
B4,0.0327,0.0128
B5,0.0124,0.0276
